Laboratory results reported in patent US20120329708A1 (INDIANA UNIVERSITY RESEARCH AND TECHNOLOGY, published 2012).
*1 amine or outer side, *2 acyl side, *3 side chain or, on linkers, in order; H or OH if unused. Where no end group is shown, it is not given here. Side-chain parts run from the residue outwards. [ ]: non-standard residue; d: D form. The star is where a group is joined. 40K‑TE PEG = 40 kDa PEG attached to Cys by thioether; γGlu = O=C(O)[C@H](CCC(=O)[*:2])N[*:1]; Palmitoyl = CCCCCCCCCCCCCCCC(=O)*; Morn = not defined here; Aib = CC(C)(N)C(=O)O

What was measured:
Test in all cases: cell-based or functional assay
[1] = target: glucagon receptor (HEK293 cells co-transfected with the glucagon receptor and a CRE-luciferase gene)
[2] = target: GLP-1 receptor (HEK293 cells co-transfected with the GLP-1 receptor and a CRE-luciferase gene)
[3] = target: T1, GIP receptor (procedure of Example 3)
T1 sequence (P48546 whole entry, species assumed, looked up): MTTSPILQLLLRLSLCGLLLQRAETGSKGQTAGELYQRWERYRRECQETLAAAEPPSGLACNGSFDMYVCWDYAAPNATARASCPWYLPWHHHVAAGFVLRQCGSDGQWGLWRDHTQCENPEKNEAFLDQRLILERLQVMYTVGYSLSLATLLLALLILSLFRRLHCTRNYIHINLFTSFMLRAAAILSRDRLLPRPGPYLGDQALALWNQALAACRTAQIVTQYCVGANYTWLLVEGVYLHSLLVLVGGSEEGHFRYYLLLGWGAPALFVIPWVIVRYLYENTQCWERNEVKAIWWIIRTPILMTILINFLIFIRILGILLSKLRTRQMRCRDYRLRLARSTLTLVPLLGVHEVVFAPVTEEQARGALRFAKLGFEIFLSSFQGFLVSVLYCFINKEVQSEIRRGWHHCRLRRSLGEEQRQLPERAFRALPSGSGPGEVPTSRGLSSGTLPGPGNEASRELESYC

[4] = target: human GCGR (CHO-K1 cells stably expressing human GCGR) (human, UniProt P47871 26-477)
[5] = target: human GLP-1R (CHO-K1 cells stably expressing human GLP-1R) (human, UniProt P43220 24-463)
[6] = target: T2, human GIPR (CHO-K1 cells stably expressing human GIPR) (human, UniProt P48546 22-466)
T2 sequence (looked up): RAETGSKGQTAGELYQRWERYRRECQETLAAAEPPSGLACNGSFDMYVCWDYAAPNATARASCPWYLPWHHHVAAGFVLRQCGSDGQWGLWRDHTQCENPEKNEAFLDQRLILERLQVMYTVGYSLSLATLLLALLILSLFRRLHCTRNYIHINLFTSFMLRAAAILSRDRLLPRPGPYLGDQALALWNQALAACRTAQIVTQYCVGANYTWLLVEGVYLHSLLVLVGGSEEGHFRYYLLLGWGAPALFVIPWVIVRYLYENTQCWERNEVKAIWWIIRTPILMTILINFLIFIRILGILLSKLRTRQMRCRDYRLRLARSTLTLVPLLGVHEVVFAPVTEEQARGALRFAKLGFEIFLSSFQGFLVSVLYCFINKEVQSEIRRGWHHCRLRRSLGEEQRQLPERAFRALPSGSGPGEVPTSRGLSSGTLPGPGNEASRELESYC

Sequence of human GCGR (CHO-K1 cells stably expressing human GCGR) (P47871 26-477): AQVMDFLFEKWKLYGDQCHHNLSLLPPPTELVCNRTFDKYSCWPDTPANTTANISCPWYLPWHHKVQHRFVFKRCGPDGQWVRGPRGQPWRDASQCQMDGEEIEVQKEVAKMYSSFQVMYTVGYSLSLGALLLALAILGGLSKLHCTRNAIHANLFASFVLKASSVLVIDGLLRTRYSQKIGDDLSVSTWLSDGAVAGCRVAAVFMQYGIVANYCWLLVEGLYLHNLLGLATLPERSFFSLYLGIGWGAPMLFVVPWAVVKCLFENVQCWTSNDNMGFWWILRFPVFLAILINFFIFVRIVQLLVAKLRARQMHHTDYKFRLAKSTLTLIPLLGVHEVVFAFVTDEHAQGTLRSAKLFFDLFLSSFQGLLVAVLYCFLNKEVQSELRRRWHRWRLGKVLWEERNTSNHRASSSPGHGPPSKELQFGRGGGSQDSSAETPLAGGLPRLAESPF

| Binder | EC50 (nM) at glucagon receptor (cAMP-induced luciferase reporter, HEK293) [1] [nM] | EC50 (nM) at GLP-1 receptor (cAMP-induced luciferase reporter, HEK293) [2] [nM] | EC50 (nM) at GIP receptor (procedure of Example 3) [3] [nM] | EC50 (nM) at glucagon receptor (cAMP production, DiscoveRx Hithunter cAMP XS+, CHO-K1) [4] [nM] | EC50 (nM) at GLP-1 receptor (cAMP production, DiscoveRx Hithunter cAMP XS+, CHO-K1) [5] [nM] | EC50 (nM) at GIP receptor (cAMP production, DiscoveRx Hithunter cAMP XS+, CHO-K1) [6] [nM] |
| --- | --- | --- | --- | --- | --- | --- |
| H[Aib]QGTFTSDYSKYLDERRA[Aib]EFVC(40K‑TE PEG)WLLDTK[γGlu]-NH2 [peptide of SEQ ID NO: 13] | 2.81 | 0.567 | 140 |  |  |  |
| HSQGTFTSDKSKYLDERAAQDFVQWLLDTKX (s at position 2 (lower case, presumably D-Ser); K(γGlu-C16) at position 10 (Lys acylated with C16 via γGlu spacer); C-terminal γGlu; C-terminal amide) [peptide of SEQ ID NO: 14] | 0.003 | 0.003 | 976 |  |  |  |
| H[Aib]QGTFTSDK([γGlu-γGlu-Palmitoyl])SKYLD[Aib]RAAQDFVQWLMDTK[γGlu]-NH2 [peptide of SEQ ID NO: 12] | 0.01 | 0.003 | 12.8 |  |  |  |
| H[Aib]QGTFTSDK([γGlu-γGlu-Palmitoyl])SKYLD[Aib]RAAQDFVQWLLDTKQ-OH (N-terminus assumed; SMILES CCCCCCCCCCCCCCCC(=O)N[C@@H](CCC(=O)N[C@@H](CCC(=O)NCCCC[C@H](NC(=O)[C@H](CC(=O)O)NC(=O)[C@H](CO)NC(=O)[C@@H](NC(=O)[C@H](Cc1ccccc1)NC(=O)[C@@H](NC(=O)CNC(=O)[C@H](CCC(N)=O)NC(=O)C(C)(C)NC(=O)[C@@H](N)Cc1c[nH]cn1)[C@@H](C)O)[C@@H](C)O)C(=O)N[C@@H](CO)C(=O)N[C@@H](CCCCN)C(=O)N[C@@H](Cc1ccc(O)cc1)C(=O)N[C@@H](CC(C)C)C(=O)N[C@@H](CC(=O)O)C(=O)NC(C)(C)C(=O)N[C@@H](CCCNC(=N)N)C(=O)N[C@@H](C)C(=O)N[C@@H](C)C(=O)N[C@@H](CCC(N)=O)C(=O)N[C@@H](CC(=O)O)C(=O)N[C@@H](Cc1ccccc1)C(=O)N[C@H](C(=O)N[C@@H](CCC(N)=O)C(=O)N[C@@H](Cc1c[nH]c2ccccc12)C(=O)N[C@@H](CC(C)C)C(=O)N[C@@H](CC(C)C)C(=O)N[C@@H](CC(=O)O)C(=O)N[C@H](C(=O)N[C@@H](CCCCN)C(=O)N[C@@H](CCC(N)=O)C(=O)O)[C@@H](C)O)C(C)C)C(=O)O)C(=O)O) [peptide of SEQ ID NO: 16] | 0.015 | 0.019 | 1.04 |  |  |  |
| H[Aib]QGTFTSDK([γGlu-γGlu-Palmitoyl])SKYLD[Aib]RAAQDFVQWL[Morn]DTKQ-OH (not fully specified; printed as HaibQGTFTSDK(γGlu-γGlu-C16)SKYLDaibRAAQDFVQWLMornDTKQ-acid; reading uncertain) [peptide of SEQ ID NO: 15] | 0.006 | 0.005 | 1.9 |  |  |  |
| H[Aib]QGTFTSDK([γGlu-γGlu-Palmitoyl])SKYLD[Aib]RAAQDFVQWLMNTK[γGlu]-NH2 (N-terminus assumed; SMILES CCCCCCCCCCCCCCCC(=O)N[C@@H](CCC(=O)N[C@@H](CCC(=O)NCCCC[C@H](NC(=O)[C@H](CC(=O)O)NC(=O)[C@H](CO)NC(=O)[C@@H](NC(=O)[C@H](Cc1ccccc1)NC(=O)[C@@H](NC(=O)CNC(=O)[C@H](CCC(N)=O)NC(=O)C(C)(C)NC(=O)[C@@H](N)Cc1c[nH]cn1)[C@@H](C)O)[C@@H](C)O)C(=O)N[C@@H](CO)C(=O)N[C@@H](CCCCN)C(=O)N[C@@H](Cc1ccc(O)cc1)C(=O)N[C@@H](CC(C)C)C(=O)N[C@@H](CC(=O)O)C(=O)NC(C)(C)C(=O)N[C@@H](CCCNC(=N)N)C(=O)N[C@@H](C)C(=O)N[C@@H](C)C(=O)N[C@@H](CCC(N)=O)C(=O)N[C@@H](CC(=O)O)C(=O)N[C@@H](Cc1ccccc1)C(=O)N[C@H](C(=O)N[C@@H](CCC(N)=O)C(=O)N[C@@H](Cc1c[nH]c2ccccc12)C(=O)N[C@@H](CC(C)C)C(=O)N[C@@H](CCSC)C(=O)N[C@@H](CC(N)=O)C(=O)N[C@H](C(=O)N[C@@H](CCCCN)C(=O)N[C@@H](CCC(N)=O)C(=O)O)[C@@H](C)O)C(C)C)C(=O)O)C(=O)O) [peptide of SEQ ID NO: 17] |  |  |  | 0.11 | 0.075 | > 2000 |
